Measured values reported in US9951335B2, “Compositions and methods for treating otitis media and other conditions with inhibitors of CYLD” (Georgia State University Research Foundation, Inc., priority 2012, dated 2018).

Columns and labels:
NF-κB = experiment: TNF-α-induced NF-κB-Luc activity; format: cell-based; settings: TNF-α 10 ng ml−1
Method: (§1) The expression plasmids Flag-WT-CYLD, HA-WT-CYLD, Flag-H/N-CYLD, HA-C/S-CYLD, Flag-WT-Smad3, C/A-TβRI, and the reporter plasmids SBE-Luc, PAI-1-Luc, and NF-κB-Luc were previously described. Flag-WT-Akt1, pRK5-HA-Ub WT, pRK5-HA-Ub K63, and pRK5-HA-Ub K48 were from Addgene, and K to R mutants of Akt were generated with WT-Akt1 using QuickChange XL Site-Directed Mutagenesis kit (Stratagene). All transient transfections were carried out using TransIT-LT1 reagent (Minis) or Lipofectamine (Invitrogen) according to manufacturers' instructions.

PAI-1 [1] = experiment: TGF-β-induced PAI-1 expression in Akt1−/− cells; format: cell-based
Text: Thus, we determined the effect of knockdown of both Akt1 and 2 on Smad3 protein level in these cells. […] We further confirmed whether activation of Akt does induce upregulation of fibrotic response gene expression via Smad3. Activation of Akt by expressing a constitutively active C/A-Akt indeed induced expression of PAI-1 and CTGF in Smad3+/+ cells, but not in Smad3−/− cells. […] PI3 K is known as the one of the major signalling molecules upstream of Akt. We thus determined whether PI3K, like Akt, is also involved in mediating CYLD-dependent Smad3 degradation by evaluating the effect of PI3K and Akt inhibitors on Smad3 protein expression. […] Further studies are needed to determine whether CYLD-Akt-mediated regulation of Smad3 is indeed independent of PI3K by using more specific approaches.

Akt = Akt ubiquitination in cells (immunoprecipitation, immunoblotting); format: cell-based, human; settings: epithelial cells
Method: Western blot, immunoprecipitation and ubiquitination experiments were performed as follows. Western blots were performed using whole-cell extracts, separated on 8 or 10% SDS-PAGE gels, and transferred to polyvinylidine di& uoride membranes. The membrane was blocked with a solution of PBS containing 0.1% Tween 20 (PBS-T) and 5% BSA. The membrane was then incubated in a 1:2,000 dilution of a primary antibody in 5% BSA-PBS-T. After three washes in PBS-T, the membrane was incubated with 1:5,000 dilution of the corresponding secondary antibody in 3% non-fact skim milk-PBS-T. Respective proteins were visualized by using enhanced chemiluminescence detection reagents, according to the manufacturer's instructions. To conduct immunoprecipitation analysis, cell lysates were incubated with 1 μg of primary antibodies overnight, at 4° C., followed by 2-h incubation with protein A/G-agarose beads (Invitrogen). Immunoprecipitates were then suspended in a sample buffer, separated on 8% SDS-PAGE, transferred to polyvinylidine difluoride membrane, and detected by immunoblot analysis, as described above. […]

CYLD = CYLD knockdown efficiency of siCYLD (immunoblotting); format: cell-based, human; settings: a number of cell types including NHBE cells
Method: RNA-mediated interference for downregulating CYLD expression was carried out using pSuper-CYLD and the sequence for the siCYLD is 5′-[…]-3′ (SEQ ID NO:13). Human and mouse siRNAs for Akt and CHIP were from Dharmacon, and knockdown of Akts and CHIP, using siAkt and siCHIP, was performed with Lipofectamine 2000 (Invitrogen). ON-TARGETplus SMARTpool of siRNAs targeting human Akt1, human CHIP, mouse Akt1, and mouse Akt2 consists of four siRNAs and sequences for the siRNAs are as follows: Human siAkt1 (5′-[…]-3′ (SEQ ID NO:14), 5′-[…]-3′ (SEQ ID NO:15), 5′[…]-3′ (SEQ ID NO:16), 5′-[…]-3′ (SEQ ID NO:17)); human CHIP (5′-[…]-3′ (SEQ ID NO:18), 5′-[…]-3′ (SEQ ID NO:19), 5′-[…]-3′ (SEQ ID NO:20), 5′-[…]-3′ (SEQ ID NO:21)); mouse Akt1 (5′-[…]-3′ (SEQ ID NO:22), 5′-[…]-3′ (SEQ ID NO:23), 5′-[…]-3′ (SEQ ID NO:24), 5′-[…]-3′ (SEQ ID NO:25)); mouse Akt2 (5′-[…]-3′ (SEQ ID NO:26), 5′-[…]-3′ (SEQ ID NO:27), 5′-[…]-3′ (SEQ ID NO:28), 5′-[…]-3′ (SEQ ID NO:29)).
Western blot, immunoprecipitation and ubiquitination experiments were performed as follows. Western blots were performed using whole-cell extracts, separated on 8 or 10% SDS-PAGE gels, and transferred to polyvinylidine di& uoride membranes. […] Immunoprecipitates were then suspended in a sample buffer, separated on 8% SDS-PAGE, transferred to polyvinylidine difluoride membrane, and detected by immunoblot analysis, as described above. […]

TGF-β-signalling [2] = experiment: TGF-β-induced SBE-promoter activity in mouse MEF cells; format: cell-based
Method: as §1

PAI-1 [3] = experiment: TGF-β-induced PAI-1 expression (promoter activity, mRNA) in human cells; format: cell-based; settings: A549 and HeLa cells
Method: Total RNA was isolated using TRIzol reagent following the manufacturer's instructions. Synthesis of complementary DNA from total RNA was performed with MultiScribe reverse transcriptase. Real-time quantitative PCR was performed using an ABI 7500 Sequence Detection System (Applied Biosystems). Relative quantities of mRNAs were calculated using the comparative threshold cycle method and normalized using human and mouse glyceraldehyde-3-phosphate dehydrogenase as an endogenous control. The primer sequences for mouse COL1A2, COL3A1, CTGF and PAI-1, and human PAI-1, CHIP, and Smad3 are as follows. Mouse CTGF: 5′-[…]-3′ (SEQ ID NO:1) and 5′-[…]-3′ (SEQ ID NO:2); mouse COL1A2: 5′-[…]-3′ (SEQ ID NO:3) and 5′-[…]-3′ (SEQ ID NO:4); mouse COL3A1: 5′-[…]-3′ (SEQ ID NO:5) and 5′-[…]-3′ (SEQ ID NO:6); mouse PAI-1: 5′-[…]-3′ (SEQ ID NO:7) and 5′-[…]-3′ (SEQ ID NO:8); human PAI-1: 5′-[…]-3′ (SEQ ID NO:9) and 5′-[…]-3′ (SEQ ID NO:10); human CHIP: 5′-[…]-3′ (SEQ ID NO:11) and 5′-[…]-3′ (SEQ ID NO:12).
as §1

TGF-β-signalling [4] = experiment: TGF-β-induced SBE-promoter (SBE-Luc) activity in human epithelial cells; format: cell-based
Method: as §1

B1: siCYLD: RNA-mediated interference for downregulating CYLD expression using pSuper-CYLD, SEQ ID NO:13 (nucleic acid)
chain: GATCCCCGAGCTACTGAGGACAGAAATTCAAGAGATTTCTGTCCTCAGTAGCTCTTTTTGGAAA
modifications: expressed from pSuper vector
Question: What does the source list for B1?
Answer: TNF-α-induced activation of NF-κB-Luc activity (NF-κB): greatly enhanced; TGF-β-induced PAI-1 expression (PAI-1 [1]): no longer enhanced; S. pneumoniae-induced Akt ubiquitination (Akt): markedly enhanced; endogenous CYLD protein expression (CYLD): efficiently reduced; SBE-Luc activity in the absence of Smad3 (TGF-β-signalling [2]; Smad3-deficient MEF cells): did not enhance; SBE-Luc activity in cells reconstituted with WT-Smad3 (TGF-β-signalling [2]; Smad3-deficient MEF cells + WT-Smad3): markedly enhanced; TGF-α-responsive PAI-1 promoter activity (PAI-1 [3]): markedly enhanced; PAI-1 messenger RNA (PAI-1 [3]; TGF-β stimulated): markedly enhanced; TGF-β-induced Smad-binding element (SBE)-dependent promoter activity (TGF-β-signalling [4]; A549 and HeLa cells): markedly enhanced; TGF-β-induced SBE-dependent promoter activity, dose-dependent manner (TGF-β-signalling [4]; A549 cells transfected with various amounts): enhanced; TGF-β-induced SBE-Luc activity (TGF-β-signalling [4]; human primary bronchial epithelial NHBE cells): enhanced
